# Laboratory results from publication PMC5984683 (Cancer research, 2018).
# Numbering of substitutions follows the chain as printed. Names may count otherwise. Read-outs that look alike come from different tables or passages of the source.
# B1: full length recombinant TG2 (enzyme, UniProt P21980 1-687, looked up)
# chain: MAEELVLERCDLELETNGRDHHTADLCREKLVVRRGQPFWLTLHFEGRNYEASVDSLTFSVVTGPAPSQEAGTKARFPLRDAVEEGDWTATVVDQQDCTLSLQLTTPANAPIGLYRLSLEASTGYQGSSFVLGHFILLFNAWCPADAVYLDSEEERQEYVLTQQGFIYQGSAKFIKNIPWNFGQFEDGILDICLILLDVNPKFLKNAGRDCSRRSSPVYVGRVVSGMVNCNDDQGVLLGRWDNNYGDGVSPMSWIGSVDILRRWKNHGCQRVKYGQCWVFAAVACTVLRCLGIPTRVVTNYNSAHDQNSNLLIEYFRNEFGEIQGDKSEMIWNFHCWVESWMTRPDLQPGYEGWQALDPTPQEKSEGTYCCGPVPVRAIKEGDLSTKYDAPFVFAEVNADVVDWIQQDDGSVHKSINRSLIVGLKISTKSVGRDEREDITHTYKYPEGSSEEREAFTRANHLNKLAEKEETGMAMRIRVGQSMNMGSDFDVFAHITNNTAEEYVCRLLLCARTVSYNGILGPECGTKYLLNLNLEPFSEKSVPLCILYEKYRDCLTESNLIKVRALLVEPVINSYLLAERDLYLENPEIKIRILGEPKQKRKLVAEVSLQNPLPVALEGCTFTVEGAGLTEEQKTVEIPDPVEAGEEVKVRMDLLPLHMGLHKLVVNFESDKLKAVKGFRNVIIGPA
# B2: recombinant mutant TG2 (C277A) (enzyme)
# chain: B1 chain with C277A
# What was measured:
# [1] = biological target: T1, full-length recombinant Fzd7 (human, UniProt O75084 33-574); experiment: co-IP
# [2] = biological target: T1, full-length recombinant Fzd7; experiment: co-IP; remark: listed apart in the source
Binder,binding result [1],binding result [2]
B1,binds,
B2,binds,
DAVEEGDWTATVVDQQDCTLSLQLTTPANA [TG2 peptide 81[residues removed]110],,binds
